The record followed here is PMC5079754 (Biochimica et biophysica acta, 2016).

The target in data set [1] is Lmod2s1 (N-terminal residues 2-41 of leiomodin-2) (human) (UniProt Q6P5Q4). Description: circular dichroism, thermal unfolding. (CD spectra are sensitive to the conformation of chiral molecules.)
Data set [2] addresses Tmod1s1 peptide (residues 1-38 of tropomodulin-1) (Gallus gallus). Description: circular dichroism, thermal unfolding.
Data set [3] addresses Tmod1s1 (res. 1–38 of Tmod1). Put plainly: CD thermal unfolding at 222 nm of Tpm1.1 model peptide complexes with Tmod1s1. It is filed as binding, Gallus gallus.
The conditions of data set [4]: peptide alone, versus WT αTM1a1-21Zip.
Data set [5] addresses Lmod2s1 (N-terminal residues 2-41 of leiomodin-2) (human) (UniProt Q6P5Q4). Put plainly: NMR titration. The note with it: scale: two-chained αTM1a_(1-14)Zip molecule per Lmod2s1.

UniProt Q6P5Q4, sequence (Q6P5Q4 2-41): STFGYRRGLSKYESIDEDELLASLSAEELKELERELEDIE

Broadly, the Kd is the concentration at which binding is half-saturated. Regarding “αTM1a_(1-21)Zip, model Tpm1.1 peptide (from UniProt P09493-1 1-21)”, the dissociation constant Kd came out at 370 nM in data set [1] and 1000 nM in data set [2].

Regarding “H-GMDAIKKKMQMLKLDNENALDRNYHLENEVARLKKLVGER-OH [αTM1a1–21Zip[K15N]]”, in data set [3] (read-out: Kd (30°C,µM), Tmod1s1, 30°C, Kd=exp(−ΔΔG/RT) from CD unfolding of the complex and of the Tpm1.1 peptide alone, 40 µM equimolar, 10 mM sodium phosphate pH 7.0, 100 mM NaCl, duplicates), the Kd was 3.77 ± 0.01 µM. The “fold reduction of affinity of Tmod1s1 by the K15N mutation” value in data set [3] (versus WT αTM1a1-21Zip, P<0.001, One Way ANOVA) was “four-fold”. The “decrease in the Tm caused by the K15N mutation” value in data set [4] was ~ 6 °C.

As usually defined, the stoichiometry N is a count of units in the complex or per binding partner. “αTM1a_(1-14)Zip, model Tpm1.1 peptide (from UniProt P09493-1 1-14)” gave a stoichiometry N in data set [5] of 1.

With “αTM1a_(1-21)Zip[K15N], model Tpm1.1 peptide with the dilated cardiomyopathy-associated mutation K15N (from UniProt P09493-1 1-21)”, the dissociation constant (Kd) came out at 2310 nM in data set [1] and 3770 nM in data set [2].
